Target: bovine brain Arp2/3 complex (bovine, UniProt P61157 1-418; A7MB62 1-394; Q58CQ2 1-372; Q3MHR7 1-300; Q3T035 1-178; Q148J6 …)
Assay: ITC

| Kd | Binder |
| --- | --- |
| 2.2 µM | Cort_(18-76) (domain or fragment) GADDWETDPDFVNDVSEKEQRWGAKTVQGSGHQEHINIHKLRENVFQEHQTLKEKELET |
| 4.5 µM | Cort_(1-76), cortactin N-terminal acidic domain (NTA, residues 1-76) (domain or fragment) MWKASAGHAVSITQDDGGADDWETDPDFVNDVSEKEQRWGAKTVQGSGHQEHINIHKLRENVFQEHQTLKEKELET |
| 5.4 µM | MWKASAGHAVSITQDDGGADDWETDPDFVNDVS (domain or fragment) [Cort_(1-33)] |

From PMC10613254 (2023)
